This passage reports Kd results from PMC11812572 (2025).

In assay [1] the target is T1, recombinant human cytoplasmic dynein 1 complex with mEGFP fused to its heavy chain, mEGFP-dynein (human, UniProt Q14204 1-4646; O43237-1 1-492; P63172 1-113; Q9NP97-1 1-96; P63167 1-89). Description: apparent, from TIRF dynein activation (run frequency); with 14 nM dynactin and 200 nM NuMA^N-term.
For assay [2], the target named is T1, recombinant human cytoplasmic dynein 1 …. Put plainly: apparent, from TIRF dynein activation (run frequency); with 14 nM dynactin and 100 nM Lis1.

B1: Lis1 (protein)
chain: MVLSQRQRDELNRAIADYLRSNGYEEAYSVFKKEAELDVNEELDKKYAGLLEKKWTSVIRLQKKVMELESKLNEAKEEFTSGGPLGQKRDPKEWIPRPPEKYALSGHRSPVTRVIFHPVFSVMVSASEDATIKVWDYETGDFERTLKGHTDSVQDISFDHSGKLLASCSADMTIKLWDFQGFECIRTMHGHDHNVSSVAIMPNGDHIVSASRDKTIKMWEVQTGYCVKTFTGHREWVRMVRPNQDGTLIASCSNDQTVRVWVVATKECKAELREHEHVVECISWAPESSYSSISEATGSETKKSGKPGPFLLSGSRDKTIKMWDVSTGMCLMTLVGHDNWVRGVLFHSGGKFILSCADDKTLRVWDYKNKRCMKTLNAHEHFVTSLDFHKTAPYVVTGSVDQTVKVWECR
modifications: full-length human Lis1; N-terminal His6-TEV tag (unlabelled construct) or mCherry fusion left out; homodimer by general knowledge, copy number not printed in the text given
As to B1, the Kd in assay [1] worked out at 148 nM.

B2: AF546- or AF647-labelled SNAP-tagged human NuMA N-terminal fragment (first 705 aa), NuMA^N-term (domain or fragment)
chain: MTLHATRGAALLSWVNSLHVADPVEAVLQLQDCSIFIKIIDRIHGTEEGQQILKQPVSERLDFVCSFLQKNRKHPSSPECLVSAQKVLEGSELELAKMTMLLLYHSTMSSKSPRDWEQFEYKIQAELAVILKFVLDHEDGLNLNEDLENFLQKAPVPSTCSSTFPEELSPPSHQAKREIRFLELQKVASSSSGNNFLSGSPASPMGDILQTPQFQMRRLKKQLADERSNRDELELELAENRKLLTEKDAQIAMMQQRIDRLALLNEKQAASPLEPKELEELRDKNESLTMRLHETLKQCQDLKTEKSQMDRKINQLSEENGDLSFKLREFASHLQQLQDALNELTEEHSKATQEWLEKQAQLEKELSAALQDKKCLEEKNEILQGKLSQLEEHLSQLQDNPPQEKGEVLGDVLQLETLKQEAATLAANNTQLQARVEMLETERGQQEAKLLAERGHFEEEKQQLSSLITDLQSSISNLSQAKEELEQASQAHGARLTAQVASLTSELTTLNATIQQQDQELAGLKQQAKEKQAQLAQTLQQQEQASQGLRHQVEQLSSSLKQKEQQLKEVAEKQEATRQDHAQQLATAAEEREASLRERDAALKQLEALEKEKAAKLEILQQQLQVANEARDSAQTSVTQAQREKAELSRKVEELQACVETARQEQHEAQAQVAELELQLRSEQQKATEKERVAQEKDQLQEQLQ
modifications: SNAP-tag labelled with SNAP-Surface Alexa Fluor 546 or SNAP-Surface Alexa Fluor 647
As for B2, in assay [2], the Kd is 51 nM.
